The target in one data set is BES1-MBP (Arabidopsis thaliana, UniProt Q9LN63 1-335). Put plainly: EMSA.
For the next data set, the target named is T1, GST-SMXL6 (Arabidopsis, UniProt Q9LML2 1-979).
T1 sequence (looked up): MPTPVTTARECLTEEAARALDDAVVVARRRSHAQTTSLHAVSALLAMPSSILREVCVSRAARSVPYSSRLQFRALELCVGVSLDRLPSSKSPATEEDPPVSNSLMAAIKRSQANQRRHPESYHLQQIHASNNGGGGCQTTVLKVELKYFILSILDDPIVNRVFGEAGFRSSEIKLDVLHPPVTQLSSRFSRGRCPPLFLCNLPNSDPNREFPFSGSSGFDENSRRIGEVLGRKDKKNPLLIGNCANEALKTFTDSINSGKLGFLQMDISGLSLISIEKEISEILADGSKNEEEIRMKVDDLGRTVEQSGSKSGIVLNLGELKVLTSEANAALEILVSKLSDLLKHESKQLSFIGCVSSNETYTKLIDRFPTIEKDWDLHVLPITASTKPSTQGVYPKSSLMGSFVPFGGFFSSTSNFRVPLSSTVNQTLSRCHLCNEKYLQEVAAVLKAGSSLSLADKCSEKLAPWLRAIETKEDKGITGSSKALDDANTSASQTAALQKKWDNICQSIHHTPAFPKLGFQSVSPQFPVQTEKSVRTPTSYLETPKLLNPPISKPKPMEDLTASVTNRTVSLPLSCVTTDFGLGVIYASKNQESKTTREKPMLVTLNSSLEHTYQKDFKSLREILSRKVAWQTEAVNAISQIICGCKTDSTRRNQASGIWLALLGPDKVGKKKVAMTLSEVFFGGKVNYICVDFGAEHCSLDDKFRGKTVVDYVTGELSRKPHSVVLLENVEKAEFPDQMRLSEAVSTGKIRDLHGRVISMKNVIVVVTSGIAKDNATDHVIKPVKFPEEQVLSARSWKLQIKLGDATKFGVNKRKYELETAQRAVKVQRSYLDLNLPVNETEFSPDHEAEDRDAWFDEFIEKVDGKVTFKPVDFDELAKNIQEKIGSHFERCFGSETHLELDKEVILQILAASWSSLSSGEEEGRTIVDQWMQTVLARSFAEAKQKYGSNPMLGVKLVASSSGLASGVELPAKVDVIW
Put plainly: pull-down.

A further data set concerns the target T2, GST-SMXL7 (Arabidopsis, UniProt O80875 1-1002).
T2 sequence (looked up): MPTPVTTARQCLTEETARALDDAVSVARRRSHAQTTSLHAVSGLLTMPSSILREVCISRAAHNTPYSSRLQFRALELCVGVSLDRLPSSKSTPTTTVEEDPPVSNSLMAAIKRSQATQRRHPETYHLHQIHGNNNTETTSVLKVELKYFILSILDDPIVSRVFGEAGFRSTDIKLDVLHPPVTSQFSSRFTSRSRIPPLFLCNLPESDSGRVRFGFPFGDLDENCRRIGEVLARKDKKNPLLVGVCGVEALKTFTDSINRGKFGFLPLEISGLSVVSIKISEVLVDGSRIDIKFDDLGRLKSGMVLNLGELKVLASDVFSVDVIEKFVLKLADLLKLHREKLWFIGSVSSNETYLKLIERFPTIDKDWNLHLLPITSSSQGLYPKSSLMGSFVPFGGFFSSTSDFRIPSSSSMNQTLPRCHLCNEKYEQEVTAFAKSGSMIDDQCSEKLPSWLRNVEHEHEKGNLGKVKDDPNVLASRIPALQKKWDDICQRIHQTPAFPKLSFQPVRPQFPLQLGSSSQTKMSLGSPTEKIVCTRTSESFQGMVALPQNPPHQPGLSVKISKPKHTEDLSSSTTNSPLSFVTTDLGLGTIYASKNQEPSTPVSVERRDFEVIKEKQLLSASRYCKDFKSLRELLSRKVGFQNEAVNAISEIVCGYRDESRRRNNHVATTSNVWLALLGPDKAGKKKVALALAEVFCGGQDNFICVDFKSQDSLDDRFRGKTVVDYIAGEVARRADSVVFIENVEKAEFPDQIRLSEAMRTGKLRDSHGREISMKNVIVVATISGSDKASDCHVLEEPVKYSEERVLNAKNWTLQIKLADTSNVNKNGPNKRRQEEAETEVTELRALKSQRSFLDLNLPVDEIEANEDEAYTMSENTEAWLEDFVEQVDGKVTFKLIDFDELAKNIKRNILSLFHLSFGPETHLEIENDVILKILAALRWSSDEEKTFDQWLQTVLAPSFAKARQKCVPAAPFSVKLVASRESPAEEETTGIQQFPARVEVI
Description: pull-down.

Another data set deals with T3, GST-SMXL8 (Arabidopsis, UniProt F4IGZ2 1-910).
T3 sequence (looked up): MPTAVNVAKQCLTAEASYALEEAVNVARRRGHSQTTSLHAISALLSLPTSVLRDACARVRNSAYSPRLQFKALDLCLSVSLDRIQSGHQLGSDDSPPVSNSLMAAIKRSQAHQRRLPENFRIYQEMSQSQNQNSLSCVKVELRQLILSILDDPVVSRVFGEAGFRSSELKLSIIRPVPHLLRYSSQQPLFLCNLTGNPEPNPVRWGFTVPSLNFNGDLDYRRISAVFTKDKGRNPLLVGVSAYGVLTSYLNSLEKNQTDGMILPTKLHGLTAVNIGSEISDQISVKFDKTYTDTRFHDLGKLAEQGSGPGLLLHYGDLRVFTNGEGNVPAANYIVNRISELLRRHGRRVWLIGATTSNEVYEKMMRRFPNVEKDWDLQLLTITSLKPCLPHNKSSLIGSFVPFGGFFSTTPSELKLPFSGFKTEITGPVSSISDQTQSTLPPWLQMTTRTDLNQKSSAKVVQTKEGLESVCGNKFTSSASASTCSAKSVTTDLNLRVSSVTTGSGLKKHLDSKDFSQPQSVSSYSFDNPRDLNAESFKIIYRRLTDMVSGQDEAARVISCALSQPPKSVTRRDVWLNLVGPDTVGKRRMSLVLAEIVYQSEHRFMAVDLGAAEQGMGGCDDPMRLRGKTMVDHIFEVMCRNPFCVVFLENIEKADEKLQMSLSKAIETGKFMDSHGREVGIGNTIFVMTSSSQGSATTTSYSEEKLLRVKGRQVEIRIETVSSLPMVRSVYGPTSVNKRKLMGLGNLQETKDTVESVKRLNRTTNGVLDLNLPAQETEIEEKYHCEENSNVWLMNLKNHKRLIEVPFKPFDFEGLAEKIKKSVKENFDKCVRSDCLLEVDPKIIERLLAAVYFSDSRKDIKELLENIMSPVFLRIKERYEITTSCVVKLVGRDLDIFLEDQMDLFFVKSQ
Put plainly: pull-down.

B1: BRC1 promoter probe b (fragment F4) (dsDNA)
DNA 1: AACATAAACAAACACAAGGTCCTAATTATAGAAAAAAATC
DNA 2: GATTTTTTTCTATAATTAGGACCTTGTGTTTGTTTATGTT
Take B1: in the data set with BES1-MBP, the binding result is recorded as “binds”.

B2: BRC1 promoter probe a (fragment F2) (dsDNA)
DNA 1: GAACAAATGCAATATATCAATAGTTAGTGTACATATGAAG
DNA 2: CTTCATATGTACACTAACTATTGATATATTGCATTTGTTC
Take B2: the binding result with BES1-MBP is “binds”.

B3: MBP-BES1 (natural protein, Arabidopsis, UniProt Q9LN63 1-335, looked up)
chain: MTSDGATSTSAAAAAAAMATRRKPSWRERENNRRRERRRRAVAAKIYTGLRAQGNYNLPKHCDNNEVLKALCSEAGWVVEEDGTTYRKGHKPLPGDMAGSSSRATPYSSHNQSPLSSTFDSPILSYQVSPSSSSFPSPSRVGDPHNISTIFPFLRNGGIPSSLPPLRISNSAPVTPPVSSPTSRNPKPLPTWESFTKQSMSMAAKQSMTSLNYPFYAVSAPASPTHHRQFHAPATIPECDESDSSTVDSGHWISFQKFAQQQPFSASMVPTSPTFNLVKPAPQQLSPNTAAIQEIGQSSEFKFENSQVKPWEGERIHDVAMEDLELTLGNGKAHS
Consider B3, for which the binding result with GST-SMXL6, with GST-SMXL7 and in the data set with GST-SMXL8 was “binds” each time.

B4: BRC1 promoter probe c (fragment F5) (dsDNA)
DNA 1: AAGAAGATTATAGTACAAGTGTCATTCTCAAAATTTTGTC
DNA 2: GACAAAATTTTGAGAATGACACTTGTACTATAATCTTCTT
For the molecule B4, the binding result in the data set with BES1-MBP is listed as “binds”.
